In this experiment the target is Cas9 protein fused to 10 tandem copies of GCN4 peptide separated by linkers (SunTag) (Streptococcus pyogenes) (UniProt Q99ZW2). Nature of the experiment: cell-based or functional assay.
Chain of UniProt Q99ZW2 (Q99ZW2 whole entry, the tested form may be a part): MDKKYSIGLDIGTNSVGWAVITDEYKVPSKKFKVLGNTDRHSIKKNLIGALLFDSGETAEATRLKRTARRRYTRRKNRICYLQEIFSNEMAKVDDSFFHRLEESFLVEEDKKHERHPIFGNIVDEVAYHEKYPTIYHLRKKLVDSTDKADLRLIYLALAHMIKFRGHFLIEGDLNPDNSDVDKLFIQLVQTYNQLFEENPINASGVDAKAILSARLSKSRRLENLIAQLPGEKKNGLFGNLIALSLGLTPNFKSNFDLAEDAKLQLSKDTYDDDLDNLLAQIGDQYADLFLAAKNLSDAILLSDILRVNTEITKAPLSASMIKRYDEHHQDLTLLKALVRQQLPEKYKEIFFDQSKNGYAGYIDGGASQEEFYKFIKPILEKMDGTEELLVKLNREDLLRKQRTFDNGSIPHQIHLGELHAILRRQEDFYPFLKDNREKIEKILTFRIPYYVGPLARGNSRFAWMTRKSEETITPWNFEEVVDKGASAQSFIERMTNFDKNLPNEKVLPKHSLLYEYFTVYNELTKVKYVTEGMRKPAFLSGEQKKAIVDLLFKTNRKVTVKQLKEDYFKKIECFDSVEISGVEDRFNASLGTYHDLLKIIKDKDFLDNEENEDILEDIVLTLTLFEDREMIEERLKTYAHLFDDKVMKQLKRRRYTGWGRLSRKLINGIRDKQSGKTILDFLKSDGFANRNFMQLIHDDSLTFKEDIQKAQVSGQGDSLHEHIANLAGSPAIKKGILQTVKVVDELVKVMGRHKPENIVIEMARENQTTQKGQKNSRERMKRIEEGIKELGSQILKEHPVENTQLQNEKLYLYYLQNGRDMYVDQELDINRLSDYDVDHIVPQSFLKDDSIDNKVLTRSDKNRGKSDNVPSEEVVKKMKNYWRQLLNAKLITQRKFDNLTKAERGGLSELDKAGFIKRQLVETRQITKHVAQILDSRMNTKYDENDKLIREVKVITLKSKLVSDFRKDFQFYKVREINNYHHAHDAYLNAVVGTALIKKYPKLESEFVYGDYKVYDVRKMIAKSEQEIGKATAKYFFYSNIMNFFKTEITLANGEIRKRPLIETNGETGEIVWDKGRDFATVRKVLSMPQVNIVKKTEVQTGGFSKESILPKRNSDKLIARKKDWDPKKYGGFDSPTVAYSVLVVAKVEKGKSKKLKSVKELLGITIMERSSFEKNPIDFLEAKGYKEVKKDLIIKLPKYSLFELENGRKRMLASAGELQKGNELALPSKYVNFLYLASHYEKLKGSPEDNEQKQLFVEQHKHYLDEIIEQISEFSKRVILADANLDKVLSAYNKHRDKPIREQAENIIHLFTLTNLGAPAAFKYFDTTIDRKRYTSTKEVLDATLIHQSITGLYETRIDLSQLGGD

The substance “REDIT recombinator protein (SSAP RecT) fused to scFV antibody peptide (SunTag recruitment)” had an HRD efficiencies (mKate knock-in assay) of 2 fold.

The values above are taken from US20250354164A1.
